Paper PMC11286295, “Aspartate aminotransferase of Rhizobium leguminosarum has extended substrate specificity and metabolizes aspartate to enable N2 fixation in pea nodules” (Microbiology, 2024)

Assays:
Test in all cases: purified protein
purified protein [1] = substrate: N[C@@H](CCC(=O)O)C(=O)O; assay type: biochemical, Rhizobium leguminosarum; details: GOT reaction, co-substrate oxaloacetate, 0.05 mM PLP, 100 mM NH4Cl, 100 mM phosphate pH 7.5, 30 °C
purified protein [2] = substrate: CC(=O)C(=O)O; assay type: biochemical, Rhizobium leguminosarum; details: APT reaction, co-substrate aspartate, 0.05 mM PLP, 100 mM phosphate pH 7.5, 30 °C
purified protein [3] = substrate: O=C(O)CCC(=O)C(=O)O; assay type: biochemical, Rhizobium leguminosarum; details: AKT reaction, co-substrate aspartate, 0.05 mM PLP, 100 mM phosphate pH 7.5, 30 °C
purified protein [4] = substrate: O=C(O)CC(=O)C(=O)O; details: GOT reaction, co-substrate glutamate, 0.05 mM PLP, 100 mM NH4Cl, 100 mM phosphate pH 7.5, 30 °C
purified protein [5] = substrate: N[C@@H](CC(=O)O)C(=O)O; details: AKT reaction, co-substrate α-ketoglutarate, 0.05 mM PLP, 100 mM phosphate pH 7.5, 30 °C

B1: AatA (Rhizobium leguminosarum bv. phaseoli) (protein)
chain: MAFLADALSRVKPSATIAVSQKARELKAKGRDVIGLGAGEPDFDTPDNIKKAAIDAINRGETKYTPVSGIPELRKAIAAKFKRENGLDYSWEQTIVGTGGKQILFNAFMATLNPGDEVSIPAPYWVSYPEMVALCGGTRFFVSATQEHNFKLQAADLEKAITPKTKWFIFNSPSNPTGAAYTHDELKALTDVLMKNPQVWVLTDDMYEHLTYGDFKFVTPVEVEPQLYDRTLTMNGVSKAYAMTGWRIGYAAGPIQLIKAMDMIQGQQTSGATSIAQWAAVEALNGTQDFIPENKKIFEGRRDLVVSMLNQAKGIVCPVPEGAFYVYPSCKGLIGKTAPSGKVIETDEDFVSELLESEGVAVVHGSAFGLGPNFRISYATSEEQLEEACRRIQRFCGACK
notes: recombinant from A34 gDNA in pET101/D-TOPO (pRU1152; vector with V5-tag and 6xHis), E. coli BL21 Star (DE3), His-Trap purified (histidine elution); expected homodimer; glycine at position 266
- Km (purified protein [1]): 4430 ± 520 µM
- kcat (purified protein [1]): 163.71 ± 3.64 s⁻¹
- Km (purified protein [2]): 17000 ± 2000 µM
- kcat (purified protein [2]): 98.96 ± 4.37 s⁻¹
- Km (purified protein [3]): 320 ± 20 µM
- kcat (purified protein [3]): 130.97 ± 2.18 s⁻¹
- Km (purified protein [4]): 180 ± 30 µM
- kcat (purified protein [4]): 168.08 ± 6.55 s⁻¹
- Km (purified protein [5]): 1740 ± 320 µM
- kcat (purified protein [5]): 125.88 ± 5.09 s⁻¹
